Test [1] addresses T1, HLA-DRB1*01:01 (Homo sapiens, UniProt P01903+P01911, A100R/D57E/F55L/F60I/F76Y/I96L/L162R/M171V/P40L/Q125E/R42F/V115G/Y59C).
T1 construct: Purification of HLA-DRB1 molecules from lymphoblastoid cell lines; Total protein extracts were immunoprecipitated by anti-HLA-DR LB3.1 antibody; endogenous in cells; host or cells: JESTHOM lymphoblastoid cell line, HLA homozygous
The experiment in a line: HLA-DR peptide-binding assay (ELISA). Conditions: positive binding = OD equal to the OD for the HA peptide. Background: ELISA stands for enzyme-linked immunosorbent assay.

In test [2] the target is T2, HLA-DRB1*04:01 (Homo sapiens, UniProt P01903+P01911, A100K/A169T/F76Y/I96L/K127E/L162R/M171V/N62H/P40V/Q125Y/R42H/S133A/S149N/S66Y/V115G/V209L/W38E).
T2 construct: Purification of HLA-DRB1 molecules from lymphoblastoid cell lines; Total protein extracts were immunoprecipitated by anti-HLA-DR LB3.1 antibody; endogenous in cells; host or cells: SAVC lymphoblastoid cell line, HLA homozygous
The test is described as follows: HLA-DR peptide-binding assay (ELISA). The following applies: positive binding = OD equal to the OD for the HA peptide.

Test [3] concerns the target HLA-DRB1*04:02 (Homo sapiens, UniProt P01903+P01911, A100E/A169T/F76Y/K127E/L162R/M171V/N62H/P40V/Q125Y/Q99D/R42H/S133A/S149N/S66Y/V209L/W38E). The test is described as follows: HLA-DR peptide-binding assay (ELISA). Conditions: positive binding = OD equal to the OD for the HA peptide.
Test [4] concerns the target HLA-DRB1*04:04 (Homo sapiens, UniProt P01903+P01911, A100R/A169T/F76Y/I96L/K127E/L162R/M171V/N62H/P40V/Q125Y/R42H/S133A/S149N/S66Y/V209L/W38E). The test is described as follows: HLA-DR peptide-binding assay (ELISA). Conditions: positive binding = OD equal to the OD for the HA peptide.
The target in test [5] is HLA-DRB1*07:01 (Homo sapiens, UniProt P01903+P01911, A100R/A102G/A103Q/D57E/D86V/E43K/F76Y/K127E/L162R/M171V/P40G/Q125H/Q99D/R33Q/R42Y/R54Q/S133A/S66F/T210M/V115G/Y107V/Y59L/Y89S). The test is described as follows: HLA-DR peptide-binding assay (ELISA). Conditions: positive binding = OD equal to the OD for the HA peptide.
The test system of test [6] is 5 purified HLA-DR molecules. The experiment in a line: HLA-DR peptide-binding assay, panel of alleles and likelihood calculation per genotype. More on the design: species or system human.
For test [7], the system named is Mononuclear cells (PBLs) from patients and controls. The test is described as follows: T cell proliferation assay (BRDU incorporation). Conditions: healthy controls, 11, 5 μg/ml peptide, 6 days. It is filed as cell-based, human. As for the experimental part: T cell proliferation assay. Mononuclear cells from patients were isolated from 20 ml of heparinized blood by centrifugation through Ficoll-Histopaque (Sigma Aldrich, St. Quentin-Fallavier, France). Cells were cultured at a density of 10^6 cells/ml in RPMI 1640 with 10% self-serum in the presence of 1 μg/ml of human PAD4 or human fibrinogen or PHA (phytohemagglutinin) or 5 μg/ml of PAD4 peptide. After 6 days of culture at 37° C., proliferative response to proteins was evaluated using the colorimetric bromodeoxyuridine kit (Roche Diagnostics, Meylan, France). Positive T cell responses were defined by optical densities (OD) higher than twice the ODs for cells cultured without protein or peptide.

The target in test [8] is T3, HLA-DR molecule HLA-DRB1*01:01, purified from lymphoblastoid cell line JESTHOM (human).
T3 construct: Immunoprecipitated from detergent cell lysate with anti-HLA-DR LB3.1 and eluted at pH 2
The test is described as follows: ELISA: peptide coated on plate, purified HLA-DR added. The method, then:
(§1) HLA-DR Peptide-binding assay. ELISA plates were coated with 10 μg of PAD4 or fibrinogen peptide/well and blocked in 1% bovine serum albumin (BSA). One microgram of purified HLA-DR molecule was added to plates. After washing, bound HLA-DR was detected by biotinylated anti HLA-DR antibody B8122 (Immunotech, Marseille, France), followed by peroxidase-conjugated avidin. Peroxidase-conjugated anti-mouse IgG and peroxidase-conjugated avidin were supplied by Sigma Aldrich (St. Quentin-Fallavier, France). Optical density was read at 405 nm. The binding of each of the purified HLA-DR alleles was assayed on ELISA plates coated with peptides from PAD4 or Fibrinogen (each in duplicate wells) and, as controls, 2 wells coated with a classical positive binder, influenza hemagglutinin (HA) peptide ([…]). Positive binding was defined as an OD value equal to the OD for the HA peptide.

Test [9] deals with T4, HLA-DR molecule HLA-DRB1*04:01, purified from lymphoblastoid cell line SAVC (human).
T4 construct: Immunoprecipitated from detergent cell lysate with anti-HLA-DR LB3.1 and eluted at pH 2
The test is described as above. The method, then: as §1

Test [10] concerns the target T5, HLA-DR molecule HLA-DRB1*04:02, purified from lymphoblastoid cell line YAR (human).
T5 construct: Immunoprecipitated from detergent cell lysate with anti-HLA-DR LB3.1 and eluted at pH 2
The description is as above. As for the experimental part: as §1

In test [11] the target is T6, HLA-DR molecule HLA-DRB1*04:04, purified from lymphoblastoid cell line PEYSSON (human).
T6 construct: Immunoprecipitated from detergent cell lysate with anti-HLA-DR LB3.1 and eluted at pH 2
Described as above. As for the experimental part:
as §1

Test [12] deals with T7, HLA-DR molecule HLA-DRB1*07:01, purified from lymphoblastoid cell line MOU (human).
T7 construct: Immunoprecipitated from detergent cell lysate with anti-HLA-DR LB3.1 and eluted at pH 2
Described as above. As for the experimental part: as §1

For test [13], the system named is CD4 T cells. The test is described as follows: Flow cytometry analysis of whole blood samples stimulated with PAD4. It counts as cell-based, human. The following applies: 10 RA patients and 7 controls. The text has this: One patient with RA (2.4%) and none of the patients with psoriatic arthritis or healthy controls had proliferative response to citrullinated fibrinogen. To confirm that the proliferative response observed in PBLs cultured with PAD4 was due to T cells, we ran flow cytometry analysis in an extra 10 RA patients and 7 controls.
For orientation: Flow cytometry measures light scatter and fluorescence of single cells or particles in a stream.

The values below come from patent US20220145281A1, “NEW VACCINAL STRATEGY TO PREVENT OR TREAT RHUMATOID ARTHRITIS” (INSERM (Institut National de la Santé et de la Recherche …, priority 2019, published 2022).

Consider “DPGVEVTLTMKAASGSTGDQ (Synthetic peptide p8) [peptide 8, 20-mer peptide from human PAD4]”, for which the “binding to HLA-DRB1*01:01” value in test [1] is “binds”. Also, the “binding to HLA-DRB1*04:01” value in [2] is “binds”. In addition, in test [3], the “binding to HLA-DRB1*04:02” value is “binds”. In addition, in test [4], the “binding to HLA-DRB1*04:04” value was “binds”. In addition, the “binding to HLA-DRB1*07:01” value in test [5] was “binds”. The “binding to the five tested HLA-DRB1 alleles” value in test [6] (HLA-DRB1*01:01, *04:01, *04:02, *04:04, *07:01) is reported as “bound all five tested HLA-DRB1 alleles”. Moreover, the “subjects with T cell proliferative response to peptide (OD ratio higher than 2)” value in [7] is 0/11 and no healthy control; in test [7] (listed as Peptide 8), 0.

In the case of “VRVFQATRGKLSSKCSVVLG (Synthetic Peptide 22) [20-mer peptide from human PAD4]”, the “binding to HLA-DRB1*04:01” value in test [2] is “bind HLA-DRB1*04:01 only”. Further, the “subjects with T cell proliferative response to peptide (OD ratio higher than 2)” value in test [7] was “none of 11”.

B1: peptide 8 from PAD4 (DPGVEVTLTMKAASGSTGDQ) (peptide)
peptide: DPGVEVTLTMKAASGSTGDQ
notes: Synthetic 20-mer, coated on the ELISA plate (10 ug/well); also called p8; peptide p8
Turning to B1, the binding result in test [8], in test [9], in test [10], in test [11] and in [12] was “binds” each time.

B2: peptide 22 from PAD4 (VRVFQATRGKLSSKCSVVLG) (peptide)
peptide: VRVFQATRGKLSSKCSVVLG
notes: Synthetic 20-mer, coated on the ELISA plate (10 ug/well); also called p22; peptide p22
On to B2, for which, in test [9], the binding result was “binds”.

B3: peptidyl arginine deiminase 4 (protein, listed as Homo sapiens)
chain: MAQGTLIRVTPEQPTHAVCVLGTLTQLDICSSAPEDCTSFSINASPGVVVDIAHSPPAKKKSTGSSTWPLDPGVEVTLTMKAASGSTGDQKVQISYYGPKTPPVKALLYLTAVEISLCADITRTGKVKPTRAVKDQRTWTWGPCGQGAILLVNCDRDNLESSAMDCEDDEVLDSEDLQDMSLMTLSTKTPKDFFTNHTLVLHVARSEMDKVRVFQATRGKLSSKCSVVLGPKWPSHYLMVPGGKHNMDFYVEALAFPDTDFPGLITLTISLLDTSNLELPEAVVFQDSVVFRVAPWIMTPNTQPPQEVYACSIFENEDFLKSVTTLAMKAKCKLTICPEEENMDDQWMQDEMEIGYIQAPHKTLPVVFDSPRNRGLKEFPIKRVMGPDFGYVTRGPQTGGISGLDSFGNLEVSPPVTVRGKEYPLGRILFGDSCYPSNDSRQMHQALQDFLSAQQVQAPVKLYSDWLSVGHVDEFLSFVPAPDRKGFRLLLASPRSCYKLFQEQQNEGHGEALLFEGIKKKKQQKIKNILSNKTLREHNSFVERCIDWNRELLKRELGLAESDIIDIPQLFKLKEFSKAEAFFPNMVNMLVLGKHLGIPKPFGPVINGRCCLEEKVCSLLEPLGLQCTFINDFFTYHIRHGEVHCGTNVRRKPFSFKWWNMVP
notes: Human PAD4 protein produced in baculovirus expression system
Turning to B3, the “Likelihood to bind at least one peptide from” value was 0.061 in test [6] (genotype DRB1*01:01/01:01); 0.165 in [6] (genotype DRB1*01:01/04:01); 0.120 in test [6] (genotype DRB1*01:01/04:04); 0.076 in test [6] (genotype DRB1*01:01/07); 0.258 in [6] (genotype DRB1*04:01/04:01); 0.218 in [6] (genotype DRB1*04:01/04:04). Moreover, the “Likelihood to bind at least one peptide from” value is 0.178 in test [6] (genotype DRB1*04:01/07); 0.090 in [6] (genotype DRB1*04:02/07); 0.134 in test [6] (genotype DRB1*04:04/04:02); 0.176 in test [6] (genotype DRB1*04:04/04:04); 0.134 in test [6] (genotype DRB1*04:04/07); 0.090 in test [6] (genotype DRB1*07/07). Further, the “expression of CD154 (T cell early activation marker) on CD4 T cells” value in test [13] is “increased expression of CD154”. Moreover, in [13], the “production of TNF alpha by CD4 T cells” value is recorded as “increased production of TNF alpha”.
